B1: MSB0010603 4K21 (4K21 hVH S56V-T62S hVL N28I-H34S-N53R-H93Y) (antibody, V domains shown)
VH: EVQLVESGGGLVQPGGSLRLSCAASGFAFSAYDMSWVRQAPGKRLELVAYISSGGSVFYYPDSVKGRFTISRDNAKNSLYLQMNSLRAEDTAVYYCTRHLGFDYWGQGTLVTVSS
VL: DIVMTQSPLSLPVTPGEPASISCRSSQSLVNSIGNTYLSWYLQKPGQSPQLLIYKVSRRFSGVPDRFSGSGSGTDFTLKISRVEAEDVGVYYCSQSTYVPPTFGQGTKVEIK
B2: MSB0010599 4K21 (4K21 hVH S55R-T62S hVL N28I-H34S-N53R-H93Y) (antibody, V domains shown)
VH: EVQLVESGGGLVQPGGSLRLSCAASGFAFSAYDMSWVRQAPGKRLELVAYISSGGRSFYYPDSVKGRFTISRDNAKNSLYLQMNSLRAEDTAVYYCTRHLGFDYWGQGTLVTVSS
VL: DIVMTQSPLSLPVTPGEPASISCRSSQSLVNSIGNTYLSWYLQKPGQSPQLLIYKVSRRFSGVPDRFSGSGSGTDFTLKISRVEAEDVGVYYCSQSTYVPPTFGQGTKVEIK
B3: MSB0010601 4K21 (4K21 hVH S55K-T62S hVL N28I-H34S-N53R-H93Y) (antibody, V domains shown)
VH: EVQLVESGGGLVQPGGSLRLSCAASGFAFSAYDMSWVRQAPGKRLELVAYISSGGKSFYYPDSVKGRFTISRDNAKNSLYLQMNSLRAEDTAVYYCTRHLGFDYWGQGTLVTVSS
VL: DIVMTQSPLSLPVTPGEPASISCRSSQSLVNSIGNTYLSWYLQKPGQSPQLLIYKVSRRFSGVPDRFSGSGSGTDFTLKISRVEAEDVGVYYCSQSTYVPPTFGQGTKVEIK
B4: MSB0010595 4K21 (4K21 hVH S56V-T62S hVL S27eY-N28I-H34S-N53R-H93Y) (antibody, V domains shown)
VH: EVQLVESGGGLVQPGGSLRLSCAASGFAFSAYDMSWVRQAPGKRLELVAYISSGGSVFYYPDSVKGRFTISRDNAKNSLYLQMNSLRAEDTAVYYCTRHLGFDYWGQGTLVTVSS
VL: DIVMTQSPLSLPVTPGEPASISCRSSQSLVNYIGNTYLSWYLQKPGQSPQLLIYKVSRRFSGVPDRFSGSGSGTDFTLKISRVEAEDVGVYYCSQSTYVPPTFGQGTKVEIK
B5: MSB0010602 4K21 (4K21 hVH S55K-T62S hVL S27eY-N28I-H34S-N53R-H93Y) (antibody, V domains shown)
VH: EVQLVESGGGLVQPGGSLRLSCAASGFAFSAYDMSWVRQAPGKRLELVAYISSGGKSFYYPDSVKGRFTISRDNAKNSLYLQMNSLRAEDTAVYYCTRHLGFDYWGQGTLVTVSS
VL: DIVMTQSPLSLPVTPGEPASISCRSSQSLVNYIGNTYLSWYLQKPGQSPQLLIYKVSRRFSGVPDRFSGSGSGTDFTLKISRVEAEDVGVYYCSQSTYVPPTFGQGTKVEIK
B6: MSB0010600 4K21 (4K21 hVH S55R-T62S hVL S27eY-N28I-H34S-N53R-H93Y) (antibody, V domains shown)
VH: EVQLVESGGGLVQPGGSLRLSCAASGFAFSAYDMSWVRQAPGKRLELVAYISSGGRSFYYPDSVKGRFTISRDNAKNSLYLQMNSLRAEDTAVYYCTRHLGFDYWGQGTLVTVSS
VL: DIVMTQSPLSLPVTPGEPASISCRSSQSLVNYIGNTYLSWYLQKPGQSPQLLIYKVSRRFSGVPDRFSGSGSGTDFTLKISRVEAEDVGVYYCSQSTYVPPTFGQGTKVEIK

Consider six molecules from patent publication US20140065163A1.

Sequence of recombinant marmoset GM-CSF (Callithrix jacchus) (Callithrix jacchus) (chain, as listed by the source limits assumed, form in doubt): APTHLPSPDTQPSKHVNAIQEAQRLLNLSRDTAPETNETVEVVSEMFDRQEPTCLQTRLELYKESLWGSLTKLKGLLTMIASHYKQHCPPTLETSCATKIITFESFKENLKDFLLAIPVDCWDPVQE

This test addresses recombinant marmoset GM-CSF (Callithrix jacchus) (Callithrix jacchus). Nature of the test: cell-based or functional assay.
Turning to B1, the IC50, inhibition of marmoset GM-CSF induced TF-1 proliferation (1.9 nM) was 0.7 nM.

As for B2, the IC50, inhibition of marmoset GM-CSF induced TF-1 proliferation (1.9 nM) amounted to 0.9 nM.

As to B3, the IC50, inhibition of marmoset GM-CSF induced TF-1 proliferation (1.9 nM) was determined as 0.7 nM.

Regarding B4, the IC50, inhibition of marmoset GM-CSF induced TF-1 proliferation (1.9 nM) was determined as 1.5 nM.

Take B5: the IC50, inhibition of marmoset GM-CSF induced TF-1 proliferation (1.9 nM) came out at 1.3 nM.

Turning to B6, the IC50, inhibition of marmoset GM-CSF induced TF-1 proliferation (1.9 nM) came to 2 nM.
